These are literature values, as cited in publication PMC4512752.

Like-named read-outs stand apart in the source and are kept apart here.

The Kd is the free concentration of one partner at which half of the binding sites on the other are occupied at equilibrium, for simple one-to-one binding.

Holding throughout (test): MALLS
Data set [1] deals with Arrestin-1 (Mus musculus) (UniProt P20443).
For data set [2], the target named is Arrestin-3 (Bos taurus) (UniProt P32120).
The target is the same in data set [3]. This is another data set of the same source.
Data set [4] deals with Arrestin-2 (Bos taurus) (UniProt P17870).
For data set [5] the target is unchanged. The source holds these as a separate data set.
Data set [6] concerns the target Arrestin-1 (Homo sapiens) (UniProt P10523).

With Arrestin-1 (from UniProt P20443), the Kd in data set [1] is 57.5 µM.

In the case of Arrestin-3 (from UniProt P32120), the figures for the Kd with Arrestin-3 (Bos taurus) [2] and with Arrestin-3 (Bos taurus) [3] were 100 µM and 7.8 µM, respectively.

For Arrestin-2 (from UniProt P17870), the Kd was 100 µM with Arrestin-2 (Bos taurus) [4] and 5.5 µM in the data set with Arrestin-2 (Bos taurus) [5].

Arrestin-1 (from UniProt P10523): the Kd in data set [6] was 2.95 µM.
